This experiment addresses T1, rat TG2 (rat, UniProt Q9WVJ6 1-686, limits assumed).
T1 sequence: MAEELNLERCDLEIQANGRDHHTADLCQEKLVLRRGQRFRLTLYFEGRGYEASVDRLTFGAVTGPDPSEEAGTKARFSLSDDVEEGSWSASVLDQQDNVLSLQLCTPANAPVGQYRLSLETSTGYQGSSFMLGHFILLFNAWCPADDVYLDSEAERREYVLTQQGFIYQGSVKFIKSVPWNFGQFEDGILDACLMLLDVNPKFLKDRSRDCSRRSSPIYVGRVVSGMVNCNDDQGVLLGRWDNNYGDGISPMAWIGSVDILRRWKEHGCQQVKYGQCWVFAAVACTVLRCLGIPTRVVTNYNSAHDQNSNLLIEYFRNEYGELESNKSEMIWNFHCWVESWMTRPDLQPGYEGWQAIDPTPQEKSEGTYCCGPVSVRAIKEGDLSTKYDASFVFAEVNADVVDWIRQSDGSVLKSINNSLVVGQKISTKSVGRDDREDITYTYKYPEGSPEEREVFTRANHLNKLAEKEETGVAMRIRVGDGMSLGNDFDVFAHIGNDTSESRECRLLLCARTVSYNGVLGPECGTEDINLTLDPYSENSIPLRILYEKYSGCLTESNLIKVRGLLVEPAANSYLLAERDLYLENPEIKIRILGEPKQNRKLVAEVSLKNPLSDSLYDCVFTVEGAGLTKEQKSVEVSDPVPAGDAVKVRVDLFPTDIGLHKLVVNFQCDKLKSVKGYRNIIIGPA
Description: cell-based or functional assay.

B1: DH2 murine monoclonal antibody (antibody, V domains shown)
VH: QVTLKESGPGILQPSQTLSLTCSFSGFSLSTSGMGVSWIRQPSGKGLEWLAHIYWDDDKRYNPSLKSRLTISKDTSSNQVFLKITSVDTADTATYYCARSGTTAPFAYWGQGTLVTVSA
VL: QIVLTQSPAIMSASPGEKVTMTCSASSSVSYMYWYQQKPGSSPRLLIYDTSNLASGVPVRFSGSGSGTSYSLTISRMEAEDAATFYCQQWSSSPLTFGAGTKLELK
notes: Mouse hybridoma IgG; heavy chain amplified with primer MHCG2B, kappa light chain; also called mDH001
Regarding B1, the “IC50, 3H-putrescine incorporation assay” value is 0.000223 mg/ml of IgG (to inhibit 1 ng of TG2); the “IC50 ratio, 3H-putrescine incorporation assay (DH2 on rat TG2 against AB-1 on human TG2)” value is 38 fold less active than AB-1 against human TG2; the “IC50 ratio, 3H-putrescine incorporation assay (rat TG2 against human TG2, same antibody)” value is ~6 fold less active than against human TG2.

For the origin of these results see patent US10005846 (LIFEARC, dated 2018).
